Kd data for twelve molecules are collected here from paper PMC10303687 (Protein Science : A Publication of the Protein Society, 2023).

The term Kd denotes a measure of binding affinity in units of concentration.

Holding throughout (conditions): both partners purified
Assay [1] addresses MDM2_(H. sapiens) SWIB domain (human (Homo sapiens)). Briefly: stopped-flow fluorescence kinetics; 10°C, 20 mM sodium phosphate pH 7.4, 150 mM NaCl, 1 mM TCEP; Trp23 emission; MDM2 constant at 0.5–2 μM, p53TAD varied 1–10 μM for k on; k off from displacement of the 1 μM:1 μM complex by 10–20 μM dansylated human p53TAD peptide; K D = k off/k on.
Assay [2] has as its target T1, MDM2_(D. rerio) SWIB domain (zebra fish (Danio rerio)).
T1 construct: four residues left at the N-terminus after PreScission digestion, GPGS or GPMG; which of the two for this variant is in Excel File 1 in Data S1; MDM2, zebra fish, SWIB domain; Construct limits are in Excel File 1 in Data S1; also called zebra fish MDM2; source: E. coli BL21 (DE3) or BL21 (DE3) pLys, purified (Ni Sepharose or glutathione agarose, PreScission cleavage, SEC); not shown: …
T1 sequence (O42354 whole entry, looked up): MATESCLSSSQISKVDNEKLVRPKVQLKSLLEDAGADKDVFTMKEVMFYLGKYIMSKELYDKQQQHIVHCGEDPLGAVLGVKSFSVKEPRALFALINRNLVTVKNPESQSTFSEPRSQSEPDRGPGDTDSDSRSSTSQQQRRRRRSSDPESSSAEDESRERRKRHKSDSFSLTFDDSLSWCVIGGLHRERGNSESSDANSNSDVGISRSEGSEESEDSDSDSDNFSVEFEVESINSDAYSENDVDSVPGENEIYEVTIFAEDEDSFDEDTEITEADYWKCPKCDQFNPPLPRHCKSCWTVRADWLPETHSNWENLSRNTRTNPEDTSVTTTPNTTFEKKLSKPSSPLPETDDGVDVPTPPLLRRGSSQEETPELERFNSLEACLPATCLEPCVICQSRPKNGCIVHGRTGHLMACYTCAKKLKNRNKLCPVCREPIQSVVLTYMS
The assay is described as above.

Assay [3] concerns the target T2, p53TAD_(G. gallus)^14–26 (chicken (Gallus gallus), acetylated).
T2 construct: numbers count on: human p53 by alignment; also called chicken p53TAD; source: synthetic peptide, bought (Ontores Biotechnology, GL Biochem Shanghai Ltd or GeneCust)
The description is as above.

Assay [4] has as its target T3, MDM2_(H. sapiens) SWIB domain (human (Homo sapiens)).
T3 construct: four residues left at the N-terminus after PreScission digestion, GPGS or GPMG; which of the two for this variant is in Excel File 1 in Data S1; MDM2, human, SWIB domain; the limits of the human construct itself are in Excel File 1 in Data S1; also called human MDM2; MDM2_(Human); source: E. coli BL21 (DE3) or BL21 (DE3) pLys, purified (Ni Sepharose or glutathione agarose, PreScission cleavage, …)
Described as above.

Assay [5] addresses MDM2_(Fishes/Tetrapods)^ML. The assay is described as above.
The target of assay [6] is MDM2_(Fishes/Tetrapods)^AltAll. The assay is described as above.
The target in assay [7] is MDM2_(Reptiles/Mammals)^ML. Described as above.
Assay [8] concerns the target MDM2_(L. camtschaticum) SWIB domain (arctic lamprey (Lethenteron …)). Briefly: fluorescence polarisation; displacement: FITC-labeled human p53TAD 15–26 (6 or 10 nM) and MDM2 constant, dilution series of unlabeled peptide; K D calculated from IC50; room temperature, same buffer as the kinetics.
Assay [9] concerns the target MDM2_(Reptiles/Mammals)^AltAll. Briefly: stopped-flow fluorescence kinetics; 10°C, 20 mM sodium phosphate pH 7.4, 150 mM NaCl, 1 mM TCEP; Trp23 emission; MDM2 constant at 0.5–2 μM, p53TAD varied 1–10 μM for k on; k off from displacement of the 1 μM:1 μM complex by 10–20 μM dansylated human p53TAD peptide; K D = k off/k on.
The target in assay [10] is T3, MDM2_(H. sapiens) SWIB domain. Briefly: fluorescence polarisation; displacement: FITC-labeled human p53TAD 15–26 (6 or 10 nM) and MDM2 constant, dilution series of unlabeled peptide; K D calculated from IC50; room temperature, same buffer as the kinetics.

Ends that are not written are not given here.

Chain of MDM2_(L. camtschaticum) SWIB domain (arctic lamprey (Lethenteron …)) (chain, as listed by the source): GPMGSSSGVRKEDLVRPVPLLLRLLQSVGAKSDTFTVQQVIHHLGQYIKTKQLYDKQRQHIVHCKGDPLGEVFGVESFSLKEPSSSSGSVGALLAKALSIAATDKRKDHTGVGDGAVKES

As to DSQETFAELWEKN (not fully specified (N-terminus); also: acetylated, site not given here) [p53TAD_(D. rerio)^insertT18], the Kd is 4900 nM in [1] and 2300 nM in [2].

B1: MDM2_(G. gallus) SWIB domain (domain or fragment)
chain: SPVSASEQEALVKPKPLLLKLLKLAGAEKDTFTMKEVIFYLGQYIMSKQLYDEKEQHIVHCANDLLGDLFGVTSFSVKEHRRIYSMISRNLIAINQQDSTLAVPPEDDA
Consider B1, for which the Kd in assay [3] stood at 90 nM. For SQETFSDLWNML (not fully specified (N-terminus); also: acetylated, site not given here) [p53TAD_(Fishes/Tetrapods)^ML], the Kd in assay [4] was 8 nM; in assay [2], 93 nM; in [5] it was 145 nM. As to SQESFSDLWNLL (not fully specified (N-terminus); also: acetylated, site not given here) [p53TAD_(Fishes/Tetrapods)^AltAll], the Kd in assay [4] amounted to 19 nM; in [6], 98 nM. On to SQETFSDLWNLL (not fully specified (N-terminus); also: acetylated, site not given here) [p53TAD_(Reptiles/Mammals)^ML], for which the Kd came to 8 nM in assay [4] and 120 nM in [7]. Regarding CVDDFDRVWQGGV (not fully specified (N-terminus); also: acetylated, site not given here) [p53TAD_(L. camtschaticum)], the Kd in assay [8] is 250000 nM. Consider SQETFSDLWNML (not fully specified (N-terminus); also: acetylated, site not given here) [p53TAD_(Reptiles/Mammals)^AltAll], for which the Kd in [4] was found to be 9.5 nM; in assay [9], 200 nM.

As to SQETFNHLWNML (not fully specified (N-terminus); also: acetylated, site not given here) [p53TAD1R^ML], the Kd turned out to be 82 nM in [4] and 660 nM in assay [5].

For the molecule SQETFNHLWNTL (not fully specified (N-terminus); also: acetylated, site not given here) [p53TAD_(Bilateria)^ML], the Kd in assay [4] came out at 600 nM; in [5], 2100 nM.

For Ac-NDVELAELPWAPEDVI [p53TAD_(I. scapularis)], in [10], the Kd is 400000 nM.

For the molecule SQDTFSDLWNQL (not fully specified (N-terminus); also: acetylated, site not given here) [p53TAD1R^AltAll], the Kd in [4] stood at 24 nM; in [5], 370 nM. On to SQETFDFLWKSL (not fully specified (N-terminus); also: acetylated, site not given here) [p53TAD_(Bilateria)^AltAll], for which the Kd in [4] is 170 nM; in assay [5] it was 650 nM.
